From PMC12071944, “Interaction Between Glucagon-like Peptide 1 and Its Analogs with Amyloid-β Peptide Affects Its Fibrillation and Cytotoxicity” (International Journal of Molecular Sciences, 2025)

Target: the molecule itself
Assay: dynamic light scattering; 5–83 µM GLP-1(7-37); 25 °C; 25 mM Tris-HCl, 140 mM NaCl, 4.9 mM KCl, 2.5 mM CaCl2, 1 mM MgCl2, pH 7.4; degree of multimerization MWRh/MWm

Protein: HAEGTFTSDVSSYLEGQAAKEFIAWLVKGRG (peptide, UniProt P01275 98-128, looked up, also called GLP-1(7-37); GLP-1) [glucagon-like peptide 1, residues 7-37]
- stoichiometry N: > 210
